Experimental data reported in the supplement of paper PMC10724198.
± gives the standard deviation of the averaged measurements.

Test system: Saccharomyces cerevisiae
Test: protein stability index of tFT-peptide fusion (C-terminal peptide) (PSI (0-1 scale)); higher = more stable (slower turnover)
Details: temperature: 30 C
Description: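 MPS profiling in S. cerevisiae of the yeast C-terminome library: the last 12 aa of each annotated ORF are fused to the C-terminus of a sfGFP-mCherry timer, after a GGGS linker. Cells are FACS-sorted into 8 mCherry/sfGFP bins and deep-sequenced. PSI runs from 0 (unstable) to 1 (stable); wild type and das1Δ backgrounds, two technical replicates each.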

[1] = genetic background: das1 deletion

Sequence | protein stability index [1] | protein stability index (genetic background: wild type)
NFQREVIDNSKL [LDH1 C-terminal 12 aa] | 0.697 ± 0.015 | 0.719 ± 0.067
NGKKNEAYEGFV [EXP1 C-terminal 12 aa] | 0.699 ± 0.015 | 0.722 ± 0.014
NIIHSGDVLLAE [LEU9 C-terminal 12 aa] | 0.677 ± 0.019 | 0.708 ± 0.035
NILKVDSNSSSS [RGR1 C-terminal 12 aa] | 0.7201 ± 0.0019 | 0.702 ± 0.029
NKGPPCKTSALL [HMG2 C-terminal 12 aa] | 0.739 ± 0.023 | 0.668 ± 0.011
NKNLHGINTNEF [TRE1 C-terminal 12 aa] | 0.7067 ± 0.0039 | 0.6665 ± 0.0019
NLPFYKNQATLQ [YBR131C-A C-terminal 12 aa] | 0.6902 ± 0.005 | 0.707 ± 0.031
NLRADSFLQYPL [YDR029W C-terminal 12 aa] | 0.704 ± 0.0075 | 0.714 ± 0.021
NNKSIQKVNSPS [PAC2 C-terminal 12 aa] | 0.709 ± 0.0075 | 0.807 ± 0.035
NPHPRIQMKMSV [CDC21 C-terminal 12 aa] | 0.663 ± 0.035 | 0.624 ± 0.048
NPPERAKVNARS [RCR1 C-terminal 12 aa] | 0.675 ± 0.017 | 0.68 ± 0.042
NPSLRQSRIQGW [YGR161W-C C-terminal 12 aa] | 0.725 ± 0.005 | 0.731 ± 0.034
NPTALEKGIKDL [TRX3 C-terminal 12 aa] | 0.714 ± 0.025 | 0.69 ± 0.016
NPVVNRHIEHDD [COX13 C-terminal 12 aa] | 0.701 ± 0.011 | 0.707 ± 0.017
NRPGKSRRARRF [EBP2 C-terminal 12 aa] | 0.694 ± 0.026 | 0.668 ± 0.016
NSAGLLTLEYLS [TFC6 C-terminal 12 aa] | 0.696 ± 0.012 | 0.719 ± 0.036
NSKSNGNLFNSQ [NDD1 C-terminal 12 aa] | 0.72 ± 0.015 | 0.682 ± 0.015

Sequence | protein stability index [1] | protein stability index (genetic background: wild type)
NTSLLFKKWEGS [CEM1 C-terminal 12 aa] | 0.707 ± 0.01 | 0.702 ± 0.04
NTSTYGQTVQPV [YLR456W C-terminal 12 aa] | 0.6791 ± 0.00098 | 0.678 ± 0.041
NVSDLFQWQNAK [CAT8 C-terminal 12 aa] | 0.744 ± 0.017 | 0.683 ± 0.047
NVTAVKALNECF [SKI3 C-terminal 12 aa] | 0.6887 ± 0.0054 | 0.652 ± 0.026
NWDQHNPRNSIH [IRC10 C-terminal 12 aa] | 0.719 ± 0.013 | 0.78 ± 0.067
NYTLTVENKNKV [SPC3 C-terminal 12 aa] | 0.693 ± 0.051 | 0.734 ± 0.03
PAAIKQAIAANA [TRX1 C-terminal 12 aa] | 0.45 ± 0.014 | 0.489 ± 0.013
PAAVFTETLKHD [RPL4A C-terminal 12 aa] | 0.7 ± 0.016 | 0.7 ± 0.022
PAETTDEGWTMI [ATG26 C-terminal 12 aa] | 0.704 ± 0.023 | 0.68 ± 0.014
PDLPSTIKPLAD [BCH2 C-terminal 12 aa] | 0.693 ± 0.018 | 0.693 ± 0.0094
PIALTMFQRWAS [UPA1 C-terminal 12 aa] | 0.688 ± 0.01 | 0.498 ± 0.038
PIRRQFYLNSRQ [YML047W-A C-terminal 12 aa] | 0.701 ± 0.011 | 0.691 ± 0.017
PISPIGNAGSQI [MIN10 C-terminal 12 aa] | 0.696 ± 0.00098 | 0.6629 ± 0.0022
PISSKYTDGKKR [YPL205C C-terminal 12 aa] | 0.686 ± 0.012 | 0.695 ± 0.013
PLQRNSNVSHHL [MPH2 C-terminal 12 aa] | 0.69243 ± 0.00056 | 0.7038 ± 0.0037
PMGDIPVHLFKR [ACF4 C-terminal 12 aa] | 0.709 ± 0.013 | 0.729 ± 0.014
PNKDVEQGNDMV [AKR1 C-terminal 12 aa] | 0.6883 ± 0.00087 | 0.695 ± 0.05
